Laboratory results published in patent US20180100158A1.

Target: HLA-E expressed on the surface of HeLa cells (human (endogenous on HeLa cells)) (UniProt P13747)
Assay: cell-based or functional assay

Chain of UniProt P13747 (P13747 22-358): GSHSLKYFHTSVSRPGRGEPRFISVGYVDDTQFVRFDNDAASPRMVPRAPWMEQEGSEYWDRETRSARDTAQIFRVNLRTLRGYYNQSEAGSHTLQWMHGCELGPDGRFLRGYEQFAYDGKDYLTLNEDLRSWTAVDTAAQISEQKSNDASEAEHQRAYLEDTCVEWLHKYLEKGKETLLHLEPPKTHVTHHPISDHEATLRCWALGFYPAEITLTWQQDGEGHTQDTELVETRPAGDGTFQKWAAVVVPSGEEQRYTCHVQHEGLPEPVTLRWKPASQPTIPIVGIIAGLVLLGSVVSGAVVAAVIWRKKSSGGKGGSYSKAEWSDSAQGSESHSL

“NKG2A receptor on the surface of NK-92 cells (from UniProt P26715 1-233)” was tested, and the percentage of lysis of the target HeLa cells (Calcein release), NKG2A-KO against wild-type NK-92 effector cells (% more target HeLa cells killed) was 10 to 15.
